Molecular target: untagged wild type APOBEC3G (A3G) (human), Q9HC16
Assay: cross-linking; cleared lysate of transfected 293T cells treated with BM(PEO)3 (cysteine-reactive, 18 Å linker), 20°C, 1 h, quenched with DTT; SDS-PAGE and immunoblot for A3G; ~80 kD species; no RNase A, or RNase A after the crosslinking
Conditions: remark: other sources report otherwise

stoichiometry N: 2
B1: untagged wild type APOBEC3G (A3G), Q9HC16 1-384 (natural protein)
chain: MKPHFRNTVERMYRDTFSYNFYNRPILSRRNTVWLCYEVKTKGPSRPPLDAKIFRGQVYSELKYHPEMRFFHWFSKWRKLHRDQEYEVTWYISWSPCTKCTRDMATFLAEDPKVTLTIFVARLYYFWDPDYQEALRSLCQKRDGPRATMKIMNYDEFQHCWSKFVYSQRELFEPWNNLPKYYILLHIMLGEILRHSMDPPTFTFNFNNEPWVRGRHETYLCYEVERMHNDTWVLLNQRRGFLCNQAPHKHGFLEGRHAELCFLDVIPFWKLDLDQDYRVTCFTSWSPCFSCAQEMAKFISKNKHVSLCIFTARIYDDQGRCQEGLRTLAEAGAKISIMTYSEFKHCWDTFVDHQGCPFQPWDGLDEHSQDLSGRLRAILQNQEN
